This note sets out measurements from patent publication US20040038894A1, “Compounds for modulating cell negative regulations and biological applications thereof” (INSTITUT NATIONAL DE LA SANTE ET DE LA RECHERCHE MEDICALE …, priority 1996, published 2004).

Test [1] has as its system melanoma-specific CTL clones. Briefly: Auto-presentation assay, TNF release. Type of test: cell-based, human. To be noted: clone M117-14, TYR peptide 10 μM, mAb without cross-linking. The protocol: (§1) 5×10^4 CTLs were incubated with indicated concentrations of peptides in 100 μl final volume. After two hours, supernatants were harvested to test the TNF secretion and lysis was estimated by flow cytometry on the basis of size/granularity patterns as previously described. TNF determinations were performed by a biologic assay using cytotoxicity on the sensitive WEHI 164 clone 13 cells, as compared to a standard curve established using rTNF-β (Genzyme).
Results are illustrated by FIG. 13 showing that CD94-NKG2A inhibits the antigen-specific TNF production by CTL clones. In FIG. 13, the melanoma specific CTL clones M117-14 and 7-10 were stimulated in an auto-presentation assay with their respective cognate peptides (i.e.:EAA for 7-10 and M77-84, and TYR for M117-14) at a concentration of 10 μM, in the presence or indicated mAbs. TNF release was assessed in the supernatant by a biological assay using the WEHI 164, a TNF sensitive cell line. Data from one representative experiment out of five, are expressed as mean TNF (pg/ml)±SD of triplicate samples.

Test [2] relates to melanoma-specific CTL clones. The test can be described thus: Auto-presentation assay, CTL lysis. It is filed as cell-based, human. To be noted: clone M117-14, TYR peptide, 2 hours. The protocol:
as §1
Results are illustrated by FIG. 14 showing the negative regulation of antigen-induced CTL clone cytotoxicity by CD94-NKG2A. In FIG. 14, cells from the melanoma specific CTL clone M117-14 were stimulated in an auto-presentation assay with the indicated concentrations of cognate peptide (TYR). Cytotoxicity was measured, in the presence or absence of anti-CD94 mAb (HB-3B1). Cell lysis was estimated by flow cytometry on the basis of size/granularity patterns after auto-presentation in a short term assay (2 hours). Data shown are representative from 5 independent experiments.

Test [3] deals with phosphorylated NKG2A C-term peptide (C-terminal ITIM) (human). Briefly: SPR (BIAcore), 25 RU phosphopeptide on streptavidin chip, GST fusion injected. (In general: SPR reads the build-up and loss of mass on a sensor chip optically.)
Test [4] has as its target phosphorylated NKG2A N-term peptide (N-terminal ITIM) (human). The description is as above.
Test [5] shares this target. Briefly: SPR (BIAcore); upper end of the range, tied by Table 4 to GST-SHP-1.SH2(N+C) and the N-terminal ITIM (4.80).
The target of test [6] is T1, GST-SHIP.SH2 fusion protein (murine, UniProt Q9ES52 8-104).
T1 construct: also called SH2 domain of SHIP; not shown: Glutathione S-transferase (GST) fusion partner
T1 sequence (looked up): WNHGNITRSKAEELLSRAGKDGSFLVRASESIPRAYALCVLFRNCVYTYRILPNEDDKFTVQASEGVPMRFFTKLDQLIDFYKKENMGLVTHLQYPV
The test can be described thus: SPR (BIAcore), phosphopeptide (25 RU) on streptavidin chip, FIG. 16. On the procedure: Surface plasmon resonance measurements were performed on a BIAcore apparatus (BIAcore). The GST-SHP1.SH2(NC), GST-SHP2.SH2(NC) and GST-SHIP.SH2 fusion proteins generated from the murine phosphatase cDNAs, were purified from DH5α lysates as previously described. Before their use in BIAcore experiments, fusion proteins were dialyzed in HBS buffer pH 7.4 (10 mM HEPES, 150 mM NaCl, 3.4 mM EDTA). Protein purity was assessed by 12.5% SDS-PAGE, and Coomassie blue staining. The running buffer used in all BIAcore experiments consisted of HBS buffer supplemented with 0.05% surfactant P20. Equilibrium constant determination (koff and kₒₙ) was performed using BIAevaluation 2.0 software. The equilibrium dissociation constants KD were calculated from the koff/kₒₙ ratio.
The measurement of phosphorylated peptide binding to GST-SHP-1.SH2(N+C) and GST-SHP-2.SH2(N+C) fusion proteins was performed at a constant 5 μl/min flow rate. […] Results are expressed as corrected resonance units (CRU) corresponding to the raw RU values after subtraction of background RU value due to the injection medium, koff and kₒₙ were calculated from three independent measurements using the BIAevaluation 2.0 software. In addition, kₒₙ was calculated as the slope of the curve kg=kₒₙ×c−koff, where koff is the off-rate constant and c is the concentration of the soluble recombinant GST fusion proteins. […]

Test [7] has as its target T2, SHIP polyinositol phosphatase from RBL-2H3 cell lysates (rat (cell line RBL-2H3), UniProt P97573 1-1190, limits assumed).
T2 construct: Detected by immunoblot with anti-SHIP antiserum
T2 sequence (looked up): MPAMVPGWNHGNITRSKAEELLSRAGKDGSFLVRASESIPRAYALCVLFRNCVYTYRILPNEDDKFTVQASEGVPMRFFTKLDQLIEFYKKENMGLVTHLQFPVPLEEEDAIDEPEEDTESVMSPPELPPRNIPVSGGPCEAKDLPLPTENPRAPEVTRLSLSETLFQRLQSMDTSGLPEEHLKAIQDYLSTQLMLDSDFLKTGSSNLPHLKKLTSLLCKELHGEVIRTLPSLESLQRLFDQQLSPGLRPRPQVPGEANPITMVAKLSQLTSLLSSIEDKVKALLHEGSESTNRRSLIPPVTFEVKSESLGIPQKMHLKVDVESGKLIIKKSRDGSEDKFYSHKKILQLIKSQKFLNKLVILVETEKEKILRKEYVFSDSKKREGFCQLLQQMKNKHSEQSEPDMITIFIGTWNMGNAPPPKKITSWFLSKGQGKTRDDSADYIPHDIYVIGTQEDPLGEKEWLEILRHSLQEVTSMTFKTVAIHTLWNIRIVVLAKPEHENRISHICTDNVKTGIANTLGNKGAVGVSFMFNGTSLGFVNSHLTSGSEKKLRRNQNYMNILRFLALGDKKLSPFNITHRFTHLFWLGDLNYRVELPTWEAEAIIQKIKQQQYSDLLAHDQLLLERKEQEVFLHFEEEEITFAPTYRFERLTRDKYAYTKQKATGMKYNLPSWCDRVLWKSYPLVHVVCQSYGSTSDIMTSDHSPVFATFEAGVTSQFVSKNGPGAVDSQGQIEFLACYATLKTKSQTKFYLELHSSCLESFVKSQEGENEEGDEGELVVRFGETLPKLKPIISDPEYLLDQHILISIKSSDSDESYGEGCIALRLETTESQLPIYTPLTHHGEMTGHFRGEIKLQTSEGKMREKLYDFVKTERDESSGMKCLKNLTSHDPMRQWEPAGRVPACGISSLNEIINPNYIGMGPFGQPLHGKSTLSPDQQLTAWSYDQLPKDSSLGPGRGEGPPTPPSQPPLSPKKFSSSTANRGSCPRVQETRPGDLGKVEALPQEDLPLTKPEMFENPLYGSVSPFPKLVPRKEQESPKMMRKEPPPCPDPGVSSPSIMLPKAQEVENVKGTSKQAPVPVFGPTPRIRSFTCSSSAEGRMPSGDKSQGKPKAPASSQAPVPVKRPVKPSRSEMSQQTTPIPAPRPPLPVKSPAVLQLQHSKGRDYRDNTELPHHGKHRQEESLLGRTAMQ
The test can be described thus: cell lysate adsorption to peptide beads, immunoblot (RBL-2H3), FIG. 15A. The protocol:
In an attempt to characterize the function of these putative ITIMs, cell lysates were incubated with phosphorylated and nonphosphorylated synthetic peptides corresponding to the N-terminal and the C-terminal I/VxYxxL stretches present in NKG2A intracytoplasmic domain. Cell lysates absorbed to peptides were then assayed by immunoblotting for the presence of the phosphatases known to interact with phosphorylated ITIMs, i.e. the protein tyrosine phosphatases SHP-1 and SHP-2, as well as the polyinositol phosphate phosphatase, SHIP. In parallel, lysates adsorption were performed using control peptides corresponding to ITIMs present in Ig-like ITIM bearing receptors such as human KIRs (p58.2/CD158b, a receptor for HLA-Cw3) and mouse FcγRIIB, as well as in mouse lectin-like ITIM-bearing receptor, such as Ly-49A.
As shown in FIG. 15A (lanes 1 and 2), both N- and C-terminal I/VxYxxL stretches present in NKG2A associate with SHP-1 and SHP-2 in vitro, but no binding to SHIP was detected. Similar patterns of association were obtained using the phosphorylated ITIM peptides of […] and p58.2 KIR (FIG. 15A, lanes 3 to 5). In contrast, FcγRIIB phosphorylated ITIM peptides also associate with SHIP (FIG. 15A, lane 6). No association of phosphatases with nonphosphorylated peptides corresponding to FcγRIIB (FIG. 15A, lane 7) and NKG2A N- and C-terminal I/VxYxxL stretches was detected. When nonphosphorylated and phosphorylated peptides were used to adsorb lysates prepared from ³⁵S methionine/cysteine-labeled cells, only two bands around 64 and 68 kDa selectively associate with both phosphorylated NKG2A N- and C-terminal I/VxYxxL stretches, as compared to nonphosphorylated ones (FIG. 15B). The 64 and 68 kDa proteins which bind to phosphorylated NKG2A peptides correspond to SHP-1 and SHP-2 apparent molecular weight respectively, supporting the immunoblotting results. Therefore, our results define the two NKG2A I/VxYxxL stretches as ITIMs which appear to function similarly to other ITIMs present in inhibitory receptors for MHC class I molecules, i.e. KIRs and Ly-49 molecules. Using recombinant soluble tandem SH2 domains of SHP-1 and SHP-2, we confirmed by surface plasmon resonance that both NKG2A ITIM phosphopeptides directly associate with the SH2 domains of SHP-1 and SHP-2, but not with the SH2 domain of SHIP (FIG. 16).
Background: Immunoblotting shows a protein as a band on a membrane.

Test [8] deals with T2, SHIP polyinositol phosphatase from …. The test can be described thus: cell lysate adsorption to peptide beads, immunoblot (RBL-2H3).
Test [9] concerns the target T3, human NKG2A on NKL, M117-14 and 7-10 cells (human, UniProt P26715 1-233).
T3 construct: whole, on cells
The test can be described thus: immunoprecipitation with anti-NKG2A and anti-CD94 mAb.

Where no end group is shown, it is not given here. [ ]: non-standard residue; d: D form. The star is where a group is joined. Biotin = O=C1N[C@H]2[C@H](CS[C@H]2CCCCC(=O)*)N1; pY = N[C@@H](Cc1ccc(OP(=O)(O)O)cc1)C(=O)O

T3 sequence (P26715 whole entry): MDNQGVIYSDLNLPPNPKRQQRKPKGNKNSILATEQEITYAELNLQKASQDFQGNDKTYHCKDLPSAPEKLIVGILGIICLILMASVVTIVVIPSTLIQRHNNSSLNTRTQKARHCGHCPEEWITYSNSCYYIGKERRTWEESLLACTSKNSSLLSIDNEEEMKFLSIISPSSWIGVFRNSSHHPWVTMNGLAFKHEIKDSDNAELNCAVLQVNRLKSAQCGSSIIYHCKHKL

For Y1MDGTMSQV9 [TYR], the TNF production result in [1] is given as “released TNF”. Moreover, the “CTL lysis (auto-toxicity)” value in test [2] is recorded as “lysed in a dose-dependent manner”.

In test [3], “GST-SHP-1.SH2(N+C) fusion protein (from UniProt P29351 1-217)” came in with a dissociation constant (Kd) of 2.83 nM, an off-rate constant (koff) of 0.00117 s⁻¹ and an on-rate (kon) of 410000 M⁻¹ s⁻¹. In test [4], this molecule had a Kd of 4.8 nM, a koff of 0.00189 s⁻¹ and a kon of 390000 M⁻¹ s⁻¹. The same molecule gave a dissociation constant (Kd) in [5] of 1 to 5 nM.

B1: phosphorylated NKG2A N-term peptide (N-terminal ITIM) (peptide)
peptide: Biotin-MDNQGVI[pY]SDLNL
notes: also called NKG2-A N-terminal ITIM; NKG2A/B phosphorylated ITIM peptide
For B1, the binding result in [6] is “no binding (tested: 100 nM)”; in test [7], “no binding”.

B2: non-phosphorylated NKG2A N-term peptide (peptide)
peptide: Biotin-MDNQGVIYSDLNL
notes: also called nonphosphorylated NKG2A N-terminal I/VxYxxL stretch
With B2, in test [8], the binding result was “no binding”.

B3: human CD94 on NKL, M117-14 and 7-10 cells (receptor, UniProt Q13241 1-179, looked up)
chain: MAVFKTTLWRLISGTLGIICLSLMSTLGILLKNSFTKLSIEPAFTPGPNIELQKDSDCCSCQEKWVGYRCNCYFISSEQKTWNESRHLCASQKSSLLQLQNTDELDFMSSSQQFYWIGLSYSEEHTAWLWENGSALSQYLFPSFETFNTKNCIAYNPNGNALDESCEDKNRYICKQQLI
notes: whole, on cells
For the molecule B3, the binding result in test [9] is “binds”.

By Kd is commonly meant the concentration at which binding is half-saturated. The low end stands for a tighter complex, the high end for a looser complex. The koff is the rate constant with which the complex falls apart. High values mean fast dissociation, low ones slow dissociation. As usually defined, the kon is a measure of how fast the partners come together. Read a high kon as faster complex formation.
